# Where a chain is given by its changes, count along the chain named. Names and notes keep the numbering of the source.
# B1: W139R/N176E: intermediate active HHDH variant with W139 and N176 mutated into an apparent salt bridge (with reference to SEQ ID NO: 2) (protein)
# chain: MSTAIVTNVKHFGGMGSALRLSEAGHTVACHDESFKQKDELEAFAETYPQLKPMSEQEPAELIEAVTSAYGQVDVLVSNDIFAPEFQPIDKYAVEDYRGAVEALQIRPFALVNAVASQMKKRKSGHIIFITSATPFGPRKELSTYTSARAGACTLANALSKELGEYNIPVFAIGPEYLHSEDSPYFYPTEPWKTNPEHVAHVKKVTALQRLGTQKELGELVAFLASGSCDYLTGQVFWLAGGFPMIERWPGMPE
# B2: SEQ ID NO: 22: improved HHDH (halohydrin dehalogenase) polypeptide of the Sequence Listing (protein)
# chain: B1 chain with K36N, R139W, E176N, M252V
# B3: SEQ ID NO: 12: improved HHDH (halohydrin dehalogenase) polypeptide of the Sequence Listing (protein)
# chain: B1 chain with T3P, V9I, G13S, G16C, S17R, R139W, E176N
# B4: SEQ ID NO: 24: improved HHDH (halohydrin dehalogenase) polypeptide of the Sequence Listing (protein)
# chain: B1 chain with R139W, E176N, V199M
# B5: SEQ ID NO: 6: improved HHDH (halohydrin dehalogenase) polypeptide of the Sequence Listing (protein)
# chain: B1 chain with A24T, R139W, E176N
# B6: SEQ ID NO: 20: improved HHDH (halohydrin dehalogenase) polypeptide of the Sequence Listing (protein)
# chain: B1 chain with T3P, R139W, E176N
# B7: SEQ ID NO: 8: improved HHDH (halohydrin dehalogenase) polypeptide of the Sequence Listing (protein)
# chain: B1 chain with R20S, A29T, R139W, E176N
# B8: SEQ ID NO: 14: improved HHDH (halohydrin dehalogenase) polypeptide of the Sequence Listing (protein)
# chain: B1 chain with V6D, G14S, M15K, S17T, E40D, A133S, R139W, E176N
# B9: SEQ ID NO: 10: improved HHDH (halohydrin dehalogenase) polypeptide of the Sequence Listing (protein)
# chain: B1 chain with S2T, T3A, A29T, S34R, F35L, K52N, R139W, E176N
# B10: SEQ ID NO: 16: improved HHDH (halohydrin dehalogenase) polypeptide of the Sequence Listing (protein)
# chain: B1 chain with F136L, R139W, E176N
# B11: SEQ ID NO: 26: improved HHDH (halohydrin dehalogenase) polypeptide of the Sequence Listing (protein)
# chain: B1 chain with F136L, R139W, E176N
# B12: SEQ ID NO: 4: improved HHDH (halohydrin dehalogenase) polypeptide of the Sequence Listing (protein)
# chain: B1 chain with K36N, F44L, A45P, S55R, R139W, E176N
# B13: W139D/N176R: intermediate active HHDH variant with W139 and N176 mutated into an apparent salt bridge (with reference to SEQ ID NO: 2) (protein)
# chain: B1 chain with R139D, E176R
# B14: SEQ ID NO: 30: improved HHDH (halohydrin dehalogenase) polypeptide of the Sequence Listing (protein)
# chain: B1 chain with A4V, R139W, E176N
# B15: SEQ ID NO: 34: improved HHDH (halohydrin dehalogenase) polypeptide of the Sequence Listing (protein)
# chain: B1 chain with T3P, S17T, H26Q, R139W, E176N
# B16: SEQ ID NO: 18: improved HHDH (halohydrin dehalogenase) polypeptide of the Sequence Listing (protein)
# chain: MSTAIVTNVKHFGGMGSALRLSEAGHTVACHDESFKQKDELEAFAETYPQLKPMSEQEPAELIEAVTSAYGQVDVLVSNDIFAPEFQPIDKYAVEDYRGAVEALQIRPFALVNAVASQMKKRKSGHIIFITSATPFGPWKELSTYTSARAGACTLANALSKELGEYNIPVFAIGPNYLHSEDSPYFYPTEPWKTNPEHVAHVKKVTALQRLGTQKELGELVAFLASGSCDYLTGQGFFLAGGFPMIERWPGM
# B17: SEQ ID NO: 28: improved HHDH (halohydrin dehalogenase) polypeptide of the Sequence Listing (protein)
# chain: B16 chain with T3P, G236V, F238W
# What was measured:
# HHDH = HHDH (Agrobacterium tumefaciens, UniProt Q93D82); test: Inhibition of HHDH by ECAA; assay type: biochemical; conditions: inhibitor of HHDH
# [1] = Example 5A gas chromatography assay of HHDH activity (conversion of ECHB to ethyl (R)-4-cyano-3-hydroxybutyrate); assay type: biochemical; conditions: for HHDH activity greater than the HHDH activity of Agrobacterium sp. (wild-type) HHDH (SEQ ID NO: 2): assay described in Example 5A; for Fold Improvement in HHDH Activity over Aerobacterium sp. HHDH (SEQ ID NO: 2): ECHB substrate, Activity of Improved HHDH Enzyme/Activity of Agrobacterium sp. HHDH (SEQ ID NO: 2)
# Description: To a solution of ethyl (S)-4-chloro-3-hydroxybutyrate (10 mM-100 mM) in 500 mM HCN (500 mM NaCN adjusted to pH 7.0 with phosphoric acid) was added the halohydrin dehalogenase enzyme as a predissolved solution in the same buffer. Over time, aliquots of the mixture were withdrawn and extracted with three volumes of ethyl acetate. The organic layer was then analysed for ethyl (R)-4-cyano-3-hydroxybutyrate by gas chromatography (GC), as described hereinbelow in Example 6. Samples were taken at various time points, and the peak area of the product cyanohydrin, ethyl (R)-4-cyano-3-hydroxybutyrate, was plotted as a function of time. Time points are selected at low conversion, for example, less than 5% conversion, to avoid the effect of product inhibition (e.g., 0.5%, 1.0%, 1.5%, 2.0%, 2.5%, 3.0%, etc.). The peak areas were converted to concentration units using a standard curve that was prepared for the ethyl (R)-4-cyano-3-hydroxybutyrate. Activity of the halohydrin dehalogenase was determined in units of μmol (cyanohydrin produced)/min/mg (total halohydrin dehalogenase catalyst). Relative activities of some of the clones are shown in Table 2, computed as Activity of Improved HHDH Enzyme/Activity of Agrobacterium sp. HHDH (SEQ ID NO: 2).
# The ethyl (R)-4-cyano-3-hydroxybutyrate produced in Example 5A was analyzed using gas chromatography with flame ionization (FID) detection using an Agilent® HP-5™ column, 30 m long, 0.32 mm inner diameter, film 0.25 μm, using the following program: 1 minute at 100° C., 5° C./minute for 10 minutes; 25° C./minute for 2 minutes; then 2 minutes at 200° C. Inlet and outlet temperatures were both 300° C., and the flow rate was 2 ml/minute. Under these conditions, ethyl (R)-4-cyano-3-hydroxybutyrate elutes at 6.25 minutes and ethyl (S)-4-chloro-3-hydroxybutyrate elutes at 4.5 minutes. Chemical purity of the species was measured using the integrated peak areas from the gas chromatography results.
# Sequence of HHDH (Q93D82 entry or part of it): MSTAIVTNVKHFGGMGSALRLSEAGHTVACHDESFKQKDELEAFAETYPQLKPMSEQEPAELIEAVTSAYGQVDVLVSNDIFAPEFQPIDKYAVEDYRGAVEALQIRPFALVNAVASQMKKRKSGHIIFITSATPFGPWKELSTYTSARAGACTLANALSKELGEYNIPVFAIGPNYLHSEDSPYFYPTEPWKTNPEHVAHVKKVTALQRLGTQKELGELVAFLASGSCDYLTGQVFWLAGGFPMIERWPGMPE
Molecule,Fold Improvement in HHDH Activity over Aerobacterium sp. HHDH (SEQ ID NO: 2) [1] [Fold],further results
"CCOC(=O)CC(=O)CCl [ECAA, Ethyl-4-chloroacetoacetate]",–,Ki (HHDH): ~70 µM
B1,–,HHDH activity greater than the HHDH activity of Agrobacterium sp. (wild-type) HHDH (SEQ ID NO: 2) [1]: greater HHDH activity relative to wildtype HHDH
B2,2.5,–
B3,2.5,–
B4,3.2,–
B5,1.6,–
B6,3.8,–
B7,1.8,–
B8,1.4,–
B9,1.7,–
B10,2.0,–
B11,1.7,–
B12,1.5,–
B13,–,HHDH activity greater than the HHDH activity of Agrobacterium sp. (wild-type) HHDH (SEQ ID NO: 2) [1]: greater HHDH activity relative to wildtype HHDH
B14,2.8,–
B15,2.4,–
B16,2.7,–
B17,2.2,–

# — patent US8252554B2, “Halohydrin dehalogenases and related polynucleotides” (Codexis, Inc., priority 2003, dated 2012)
